Measured values from IntAct's records for PubMed 29892012.

Target: T1, traf4_human TRAF4 (UniProt Q9BUZ4)
T1 sequence: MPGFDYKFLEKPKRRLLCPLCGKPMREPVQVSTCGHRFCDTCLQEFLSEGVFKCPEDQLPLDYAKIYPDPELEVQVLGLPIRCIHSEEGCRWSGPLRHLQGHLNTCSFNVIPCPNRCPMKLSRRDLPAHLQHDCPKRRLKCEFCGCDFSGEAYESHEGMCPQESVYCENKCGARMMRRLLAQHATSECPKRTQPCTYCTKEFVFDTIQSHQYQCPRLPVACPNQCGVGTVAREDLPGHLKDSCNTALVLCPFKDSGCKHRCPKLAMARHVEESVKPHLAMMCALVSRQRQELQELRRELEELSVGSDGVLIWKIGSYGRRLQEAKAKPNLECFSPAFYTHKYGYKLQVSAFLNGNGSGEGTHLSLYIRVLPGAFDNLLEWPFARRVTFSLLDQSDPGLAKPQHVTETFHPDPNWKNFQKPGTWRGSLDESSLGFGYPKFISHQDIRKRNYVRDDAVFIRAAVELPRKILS

effect of a mutation on the interaction: with no effect
Substance: Golgi reassembly-stacking protein 2 (Homo sapiens) (from UniProt Q9H8Y8) L320R
